Assay results published in publication PMC7135998.

Target: α-tubulin of purified porcine brain tubulin (porcine) (UniProt P02550)
Sequence of UniProt P02550 (P02550 whole entry): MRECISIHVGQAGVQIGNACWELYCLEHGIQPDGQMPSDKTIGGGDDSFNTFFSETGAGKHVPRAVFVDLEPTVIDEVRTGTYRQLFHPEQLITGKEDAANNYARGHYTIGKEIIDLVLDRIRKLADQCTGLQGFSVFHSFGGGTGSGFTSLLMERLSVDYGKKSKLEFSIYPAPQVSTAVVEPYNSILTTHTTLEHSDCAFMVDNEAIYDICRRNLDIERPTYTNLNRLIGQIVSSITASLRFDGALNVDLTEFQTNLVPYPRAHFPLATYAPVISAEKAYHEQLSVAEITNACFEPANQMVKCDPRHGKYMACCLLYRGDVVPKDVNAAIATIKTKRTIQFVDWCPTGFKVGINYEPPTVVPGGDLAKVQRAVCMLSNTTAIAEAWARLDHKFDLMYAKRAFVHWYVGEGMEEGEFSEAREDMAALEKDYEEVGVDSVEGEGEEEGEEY

methylation of purified tubulin by GST-SET8 ([3H]AdoMet, autoradiogram) with increasing concentrations of the LSF inhibitor FQI1, up to 100 μM: 3 fold
Substance: LSF present in purified porcine brain tubulin preparations (natural protein)
